Patent US20260242485A1 (LEPU BIOPHARMA, published 2026)

What was measured:
[1] = target: T1, human CCR8 expressed on cells (human, UniProt P51685 1-355); test: flow cytometry, HEK293 hCCR8 cells (HEK293 NC parental cells as control), PE anti-human IgG Fc, geometric mean
T1 construct: whole, on cells; also called hCCR8; HEK293 hCCR8 cell line
Description: (§1) Briefly, HEK293 hCCR8 cell line, CHO-K1 mCCR8 cell line and the parental cell lines were first incubated with serially diluted 194A1G9 at 4° C. for 30 mins. After washing by FACS buffer, PE Goat anti-Human IgG Fc Secondary Antibody (eBioscience™, Invitrogen) was added to each well and incubated at 4° C. for 30 mins. Samples were washed twice with FACS staining buffer. The mean florescence intensity (MFI) of PE was evaluated by MACSQuant Analyzer 16.

[2] = target: T2, mouse CCR8 expressed on CHO-K1 cells (mouse, UniProt P56484 1-353); test: flow cytometry, CHO-K1 mCCR8 cells (CHO-K1 NC parental cells as control), PE anti-human IgG Fc, geometric mean
T2 construct: whole, on cells; also called mCCR8; murine CCR8
T2 sequence (looked up): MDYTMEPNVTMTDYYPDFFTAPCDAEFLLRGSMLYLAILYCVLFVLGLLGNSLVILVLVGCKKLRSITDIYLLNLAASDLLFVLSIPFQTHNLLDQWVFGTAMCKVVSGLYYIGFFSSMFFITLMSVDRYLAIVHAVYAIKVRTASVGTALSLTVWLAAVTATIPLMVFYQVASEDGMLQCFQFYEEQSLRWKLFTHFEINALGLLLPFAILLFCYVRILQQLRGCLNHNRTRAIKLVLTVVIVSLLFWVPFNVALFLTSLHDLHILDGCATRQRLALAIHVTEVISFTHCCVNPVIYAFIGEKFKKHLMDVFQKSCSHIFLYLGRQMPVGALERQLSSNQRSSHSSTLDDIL
Description: as §1

T1 sequence (P51685 whole entry): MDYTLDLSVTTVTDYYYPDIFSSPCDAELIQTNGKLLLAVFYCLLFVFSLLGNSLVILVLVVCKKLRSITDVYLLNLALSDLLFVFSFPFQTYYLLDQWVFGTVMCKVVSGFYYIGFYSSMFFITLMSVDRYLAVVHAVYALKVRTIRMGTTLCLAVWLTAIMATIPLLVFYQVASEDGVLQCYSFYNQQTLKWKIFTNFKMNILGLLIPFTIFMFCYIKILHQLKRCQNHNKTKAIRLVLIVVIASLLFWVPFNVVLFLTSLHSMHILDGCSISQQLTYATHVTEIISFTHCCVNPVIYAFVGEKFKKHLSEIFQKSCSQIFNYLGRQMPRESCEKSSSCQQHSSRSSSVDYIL

B1: 194A1G9 (antibody, V domains shown)
VH: QVQLQQSGTELVRPGASVTLSCKASGYTFTDHEMYWVKQTPVHGLEWIGAVDPETGSTAYNQKFKVKAILTADKSSSTAYMELRSLTSEDSAVYYCTSRLRRAMDNWGHGTSVTVSS
VL: DVVLTQTPLSLPVSPGDQASISCRSSQTLLHSSGNTYLHWFLQKPGQSPKLLIYKVSNRFSGVPDRFSGSGSGTDFTLKISRVEAEDLGVYFCSQNTHVPWTFGGGTKLEIK
notes: Detected with anti-human IgG Fc, so with a human Fc; also called surrogate anti-CCR8 antibody 194A1G9; in house anti-mCCR8 clone 194A1G9
[1]
  EC50 (read off the curve): ~0.1 nM
[2]
  EC50 (read off the curve): ~5 nM
